Data as given in the RNAGym collection of RNA variant scans (doi:10.7554/elife.80360).

B1: HDV Ribozyme (parent)
chain: GGCCGGCAUGGUCCCAGCCUCCUCGCUGGCGCCGGCUGGGCAACAUUCCGAGGGGACCGUCCCCUCGGUAAUGGCGAAUGGGACCCA

Variants of: B1
Assay: self-cleavage, relative activity (ratio to wild type); higher = more cleavage; co-transcriptional

Variant | self-cleavage
C13G G31A | 0.0923
C13G G31C | 0
U12G G55C | 0.95
U12G C75U | 0
U12G G38A | 0.0978
C13A U23G | 0.0923
U12G C21A | 0
U12G C21G | 0.0665
C13G C75G | 0.128
C13G C75U | 0.0594
C13G C75A | 0
C13A C85U | 0.141
C13A C85G | 0.0396
C13A G76U | 0.317
U12G G50C | 0.727
U12G G50U | 0.87
C13G G76U | 0.104
C13G U60A | 0.237
C13G U60C | 0
U12G G34U | 0.266
C13A G25C | 0.0773
C13A G25A | 0.0277
C13G G28U | 0
C13A C24G | 0.117

Variant | self-cleavage
C13A C24A | 0
C13G G68A | 0
U12G U23C | 0.997
C13A G67U | 0.17
C13A G67C | 0.259
C13A G67A | 0.23
U12G C49U | 0.776
U12G C49G | 0.787
C13G U69C | 0.111
C13G C58U | 0.0898
C13G C58G | 0.119
C13G G40A | 0.119
C13G G40U | 0.104
C13G G73C | 0.0396
C13G G73A | 0.0665
C13G G73U | 0.0361
C13G C49A | 0.123
C13G U47A | 0
C13G U47G | 0.151
C13G U47C | 0
U12G G29A | 0.0978
U12G G29U | 0.0489
U12G G29C | 0.175
C13A C48A | 0

Variant | self-cleavage
C13A C48G | 0.138
U12G G28A | 0
U12G G28U | 0
C13G A70G | 0.229
C13G A70C | 0
U12G A78G | 0.612
C13G C22U | 0
U12G C24A | 0.65
U12G C24U | 0.511
U12G G54U | 0.793
U12G G54A | 0.831
U12G U20G | 0
U12G U20C | 0
C13G C33U | 0.0475
C13A G28C | 0.111
C13A G73A | 0.0863
C13A G73C | 0.0767
C13A G73U | 0.0615
C13A G39A | 0.121
C13G C15A | 0.128
C13G C15U | 0
C13G C85G | 0.0692
C13G C14A | 0
C13G C14U | 0.208

Variant | self-cleavage
C13G G38A | 0.0302
C13G G38U | 0.0292
C13G G35A | 0.0449
C13G G35U | 0.0504
C13G G35C | 0.0536
C13A G82C | 0.17
C13A G82A | 0.264
C13G G25C | 0.0875
C13A U60G | 0.136
C13A U60C | 0.0573
C13A U60A | 0.214
U12G C86G | 0.59
U12G C86A | 0.906
C13G U46A | 0.0615
C13G U27A | 0.391
C13G U27G | 0.396
U12G C19U | 0.0378
U12G C19G | 0
U12G C19A | 0.161
C13U | 0.683
C13G | 0.078
C13A | 0.21
C13G U37G | 0
C13A C64G | 0.19

Variant | self-cleavage
C13A C64U | 0.242
U12G U47G | 1.21
U12G U47C | 0.437
U12G G82C | 0.633
U12G G82A | 0.499
U12G G82U | 0.519
C13A A43C | 0.135
C13G G67C | 0.0665
C13G G53U | 0.102
C13G G53A | 0.163
C13G U20C | 0.158
C13G U20G | 0
C13G U20A | 0
C13G C48A | 0.26
C13G C48G | 0.0615
U12G G40A | 0.72
U12G G40C | 0.123
U12G U79C | 0.243
U12G G31U | 0.277
U12G G31C | 0.138
U12G C64A | 0.594
C13G G34A | 0.0536
C13G G34C | 0.178
U12G C66G | 0.862

Variant | self-cleavage
U12G C66U | 0.853
U12G G73C | 0.489
U12G G73U | 0.166
C13A A51C | 0.0898
C13A A51G | 0.148
C13A C33U | 0.369
C13A C33A | 0.0396
U12G G81C | 0.665
U12G G81A | 0.201
U12G G81U | 0.266
C13A G34A | 0.131
C13A G34U | 0
C13A G34C | 0.151
C13A G59U | 0.356
C13A G59A | 0.166
C13G C26U | 0.208
C13G C61A | 0.148
U12G C14G | 0
U12G C14A | 0.356
C13G A83G | 0.0361
C13G A83U | 0
C13G G50C | 0.0594
C13G G50A | 0.131
C13G A87C | 0

Variant | self-cleavage
C13G A87G | 0.0903
C13G C63A | 0.0906
U12G G74C | 0.151
C13G U65G | 0.115
C13A A71U | 0.0615
C13A C84A | 0.831
C13A C84U | 0.227
C13A G54C | 0.283
C13A G54A | 0.117
C13G U72C | 0.0723
C13A C36A | 0.0421
C13A C36G | 0.192
C13A C36U | 0.0432
C13A C57G | 0.19
U12G U65G | 0.962
U12G U65C | 0.831
C13A U37G | 0.147
C13A U37A | 0
C13A C14A | 0.128
C13U A16G | 0.978
U12G G76C | 1.2
U12G G76U | 1.17
U12G G76A | 0.917
C13G G17U | 0.0426

Variant | self-cleavage
C13A C18U | 0.0604
C13A C18G | 0.0773
C13A G81A | 0.16
C13A G50A | 0.295
C13A G50U | 0.282
C13G C18A | 0.0831
C13G C84G | 0.0978
C13G C84A | 0
U12G U72A | 0.525
C13A C41A | 0.219
C13A C41U | 0.149
C13A U27A | 0.831
C13G G74A | 0.0405
C13G G74U | 0.0386
U12G C84U | 0.692
U12G C84A | 0.665
C13A U65A | 0.348
C13G C66A | 0.0339
C13G C41A | 0.0489
C13G C41G | 0
C13G C32U | 0.0437
C13G C32A | 0.0875
U12G C36U | 0.415
U12G C36A | 0.156

Variant | self-cleavage
U12G C15A | 0.237
U12G C15U | 0.453
U12G U69G | 0.831
C13A C62A | 0.158
C13A C62U | 0.214
C13G U79A | 0
C13G U79G | 0.0755
C13G C57U | 0.0426
C13G C57A | 0.0554
C13G C57G | 0.107
U12G C57A | 0.985
U12G C57G | 0.931
C13G A56U | 0
C13G A43G | 0.133
C13G C86A | 0.0811
C13G C86G | 0.0978
U12G G39A | 0.403
U12G G39C | 0.208
C13A U47G | 0.138
C13A U47C | 0.277
C13A U47A | 0.148
C13A U46C | 0.203
C13A U46A | 0.0346
C13G G81C | 0.229

Variant | self-cleavage
C13G G81U | 0.0475
C13G G81A | 0.0426
C13A C26U | 0.764
C13A U72A | 0
C13A U72G | 0.0639
C13A U72C | 0.0573
C13A C21A | 0.158
C13A C21U | 0.0583
U12G U60C | 0.895
U12G U60G | 0.831
U12G G59C | 0.95
U12G G59A | 0.929
U12G C32G | 0.0755
C13G G55U | 0.0583
C13G G55C | 0.135
C13G G29U | 0.0415
C13G G29A | 0.0573
C13A C32G | 0.0346
C13G A51U | 0
C13G A51G | 0.123
C13A C75G | 0.145
C13A C75A | 0.0573
C13A G68C | 0.151
C13A G68A | 0.187

Variant | self-cleavage
U12G U27A | 0.831
U12G G35U | 0.104
U12G G35C | 0.151
U12G C13G | 0.639
U12G C13U | 0.931
U12G G52U | 0.617
C13A A16C | 0.748
C13A A16G | 0.293
U12G G67U | 0.731
C13A A87U | 0.157
C13A A87C | 0.222
U12G A87C | 0.749
U12G A87G | 0.723
C13G A42G | 0.178
C13G A42C | 0
U12G C44A | 0.604
U12G C44G | 0.475
U12G G17A | 0.277
C13A C22A | 0.0287
C13A C22G | 0.026
U12G C18U | 0.361
U12G C18G | 0
U12G C18A | 0.151
C13A G80C | 0.125

Variant | self-cleavage
C13A G80A | 0.106
C13G C64U | 0.0268
C13G C64A | 0.0396
C13A C86A | 0.492
C13A C86G | 0.178
C13G C44A | 0.0449
C13G C44U | 0
C13A U20C | 0.0405
U12G G53U | 1.01
U12G G53A | 0.88
C13A G29A | 0.0268
C13G A71C | 0
C13A C15U | 0.185
C13A C15A | 0
C13A U69A | 0.277
C13A U69C | 0.111
C13A C66U | 0.125
C13A C66G | 0.378
C13A C66A | 0.125
U12G C61A | 0.798
U12G C61G | 0.798
U12G C61U | 0.831
U12G C26A | 0.748
U12G C22U | 0.256

Variant | self-cleavage
U12G C22G | 0
U12G C22A | 0.277
C13U A42G | 0.0755
C13A C63U | 0.0627
C13A A78G | 0.0773
C13A A78C | 0.0297
C13A A56U | 0.312
C13A G55U | 0.0707
C13A G55C | 0.143
C13A G55A | 0.222
C13A G74U | 0.0443
C13G G54A | 0.0604
C13G G54U | 0.0282
C13G G54C | 0.115
U12G C30U | 0.375
U12G C30A | 0.332
U12G G25C | 0.119
C13A G35A | 0.0339
U12G A83C | 1.17
C13A C44A | 0.119
C13A C44G | 0
C13A C44U | 0.0652
C13A G38C | 0.106
C13A G38U | 0.0536

Variant | self-cleavage
C13A G38A | 0.0631
C13A A70C | 0.285
C13A A70U | 0.0405
C13G A77C | 0.0615
C13G A77G | 0.199
C13G A16C | 0.0554
C13G A16G | 0.0831
C13G A16U | 0.19
C13A U79C | 0.0692
C13A G40U | 0.0326
C13A G40A | 0.233
C13A G40C | 0
U12G G80U | 0.534
U12G C48A | 0.831
U12G C48U | 1.2
C13G A45G | 0.138
C13A A42C | 0.0594
C13A A83G | 0.086
C13A A83C | 0.166
C13G C62G | 0.158
U12G C62U | 0.755
U12G C62A | 1.06
